Measured values: US20190134153A1, “IMMUNOMODULATORY EFFECT OF INHALED KINASE INHIBITOR PEPTIDES IN LUNG” (MOERAE MATRIX, INC., priority 2017, published 2019)

Columns and labels:
Test in all cases: Kinase Profiling Assay
Assay type in all cases: biochemical
Settings in all cases: 100 μM
[1] = molecular target: Met(M1268T)(h) (Homo sapiens, UniProt P08581, M1250T)
[2] = molecular target: CDK9/cyclin T1(h) (Homo sapiens, UniProt P50750)
[3] = molecular target: FGFR4(h) (Homo sapiens, UniProt P22455)
[4] = molecular target: MAPKAP-K3(h) (Homo sapiens, UniProt Q16644)
[5] = molecular target: Ros(h) (Homo sapiens, UniProt P08922)
[6] = molecular target: PKCβII(h) (Homo sapiens, UniProt P05771)
Chain of PKCβII(h) (P05771 1-673 isoform P05771-2): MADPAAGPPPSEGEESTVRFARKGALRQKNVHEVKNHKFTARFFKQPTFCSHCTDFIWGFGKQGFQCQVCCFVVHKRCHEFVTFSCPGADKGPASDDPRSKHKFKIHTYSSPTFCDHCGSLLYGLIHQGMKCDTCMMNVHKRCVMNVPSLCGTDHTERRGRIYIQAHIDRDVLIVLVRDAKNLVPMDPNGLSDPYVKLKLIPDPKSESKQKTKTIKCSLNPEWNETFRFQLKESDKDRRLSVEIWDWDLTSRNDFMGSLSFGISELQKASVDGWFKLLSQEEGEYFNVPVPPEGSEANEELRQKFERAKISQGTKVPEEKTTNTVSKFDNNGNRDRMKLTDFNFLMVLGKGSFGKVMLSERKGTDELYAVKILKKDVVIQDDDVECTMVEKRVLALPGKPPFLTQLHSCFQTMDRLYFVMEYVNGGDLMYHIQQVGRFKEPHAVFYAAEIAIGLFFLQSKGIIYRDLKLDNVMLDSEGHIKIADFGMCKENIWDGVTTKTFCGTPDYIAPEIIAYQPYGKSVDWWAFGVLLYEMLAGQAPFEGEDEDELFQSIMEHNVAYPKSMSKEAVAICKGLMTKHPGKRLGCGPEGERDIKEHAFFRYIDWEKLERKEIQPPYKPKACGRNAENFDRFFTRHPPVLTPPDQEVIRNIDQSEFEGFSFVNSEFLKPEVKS

[7] = molecular target: T1, DMPK(h) (Homo sapiens, UniProt Q09013)
T1 sequence (Q09013 1-629): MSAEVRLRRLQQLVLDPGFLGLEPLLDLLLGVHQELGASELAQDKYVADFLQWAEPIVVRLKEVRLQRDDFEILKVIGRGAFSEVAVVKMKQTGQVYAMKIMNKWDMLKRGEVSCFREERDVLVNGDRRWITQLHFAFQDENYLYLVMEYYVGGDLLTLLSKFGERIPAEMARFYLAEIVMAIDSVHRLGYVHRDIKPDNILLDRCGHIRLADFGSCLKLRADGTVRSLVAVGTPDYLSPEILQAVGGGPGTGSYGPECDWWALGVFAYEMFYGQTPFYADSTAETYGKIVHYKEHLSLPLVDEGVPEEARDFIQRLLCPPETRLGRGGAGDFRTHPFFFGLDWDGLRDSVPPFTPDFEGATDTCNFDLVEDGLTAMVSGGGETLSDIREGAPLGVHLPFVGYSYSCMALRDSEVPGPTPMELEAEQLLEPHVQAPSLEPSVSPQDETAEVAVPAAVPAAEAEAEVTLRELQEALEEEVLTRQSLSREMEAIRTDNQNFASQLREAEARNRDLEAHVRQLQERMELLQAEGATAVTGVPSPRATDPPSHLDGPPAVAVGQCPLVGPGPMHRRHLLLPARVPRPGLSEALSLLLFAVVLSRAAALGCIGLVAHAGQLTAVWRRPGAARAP

[8] = molecular target: FGFR2(h) (Homo sapiens, UniProt P21802)
[9] = molecular target: Ret(V804M)(h) (Homo sapiens, UniProt P07949, V804M)
[10] = molecular target: T2, Tec(h) activated (Homo sapiens, UniProt P42680)
T2 sequence (P42680 1-631): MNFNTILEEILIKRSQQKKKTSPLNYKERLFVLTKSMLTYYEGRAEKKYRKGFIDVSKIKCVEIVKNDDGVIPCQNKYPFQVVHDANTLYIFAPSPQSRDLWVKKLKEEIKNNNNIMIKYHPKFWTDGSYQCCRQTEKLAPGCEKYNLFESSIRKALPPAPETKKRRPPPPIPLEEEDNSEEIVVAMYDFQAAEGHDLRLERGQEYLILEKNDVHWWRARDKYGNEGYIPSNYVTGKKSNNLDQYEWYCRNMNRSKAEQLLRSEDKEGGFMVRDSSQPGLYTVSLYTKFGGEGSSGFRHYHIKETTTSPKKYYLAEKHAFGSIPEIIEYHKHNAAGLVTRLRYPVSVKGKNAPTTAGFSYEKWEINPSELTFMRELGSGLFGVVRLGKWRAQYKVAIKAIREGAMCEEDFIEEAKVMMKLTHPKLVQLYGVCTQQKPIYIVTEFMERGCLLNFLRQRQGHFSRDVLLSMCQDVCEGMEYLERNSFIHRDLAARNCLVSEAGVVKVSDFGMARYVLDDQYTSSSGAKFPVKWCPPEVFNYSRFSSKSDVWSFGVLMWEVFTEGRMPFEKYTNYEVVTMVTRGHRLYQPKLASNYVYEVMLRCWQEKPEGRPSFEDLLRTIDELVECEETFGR

[11] = molecular target: SRPK2(h) (Homo sapiens, UniProt P78362)
Chain of SRPK2(h) (P78362 whole entry): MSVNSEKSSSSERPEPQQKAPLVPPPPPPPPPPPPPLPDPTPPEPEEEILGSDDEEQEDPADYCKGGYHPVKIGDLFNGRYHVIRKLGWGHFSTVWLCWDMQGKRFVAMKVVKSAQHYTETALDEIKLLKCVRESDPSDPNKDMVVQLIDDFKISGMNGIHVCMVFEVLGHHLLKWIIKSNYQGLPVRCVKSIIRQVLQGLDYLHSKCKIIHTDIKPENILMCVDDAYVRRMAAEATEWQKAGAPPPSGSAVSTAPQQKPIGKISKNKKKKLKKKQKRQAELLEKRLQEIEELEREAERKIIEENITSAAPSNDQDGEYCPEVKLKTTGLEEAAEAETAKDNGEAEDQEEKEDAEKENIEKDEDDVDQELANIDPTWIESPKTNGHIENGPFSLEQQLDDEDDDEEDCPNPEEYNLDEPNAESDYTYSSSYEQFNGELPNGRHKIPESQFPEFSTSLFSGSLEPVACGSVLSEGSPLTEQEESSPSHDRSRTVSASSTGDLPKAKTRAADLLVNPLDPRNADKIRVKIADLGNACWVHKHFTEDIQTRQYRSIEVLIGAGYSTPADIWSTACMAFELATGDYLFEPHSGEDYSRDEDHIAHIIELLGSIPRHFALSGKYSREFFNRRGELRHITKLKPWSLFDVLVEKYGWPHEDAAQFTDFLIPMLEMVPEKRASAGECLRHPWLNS

[12] = molecular target: ZIPK(h) (Homo sapiens, UniProt O43293)
Chain of ZIPK(h) (O43293 whole entry): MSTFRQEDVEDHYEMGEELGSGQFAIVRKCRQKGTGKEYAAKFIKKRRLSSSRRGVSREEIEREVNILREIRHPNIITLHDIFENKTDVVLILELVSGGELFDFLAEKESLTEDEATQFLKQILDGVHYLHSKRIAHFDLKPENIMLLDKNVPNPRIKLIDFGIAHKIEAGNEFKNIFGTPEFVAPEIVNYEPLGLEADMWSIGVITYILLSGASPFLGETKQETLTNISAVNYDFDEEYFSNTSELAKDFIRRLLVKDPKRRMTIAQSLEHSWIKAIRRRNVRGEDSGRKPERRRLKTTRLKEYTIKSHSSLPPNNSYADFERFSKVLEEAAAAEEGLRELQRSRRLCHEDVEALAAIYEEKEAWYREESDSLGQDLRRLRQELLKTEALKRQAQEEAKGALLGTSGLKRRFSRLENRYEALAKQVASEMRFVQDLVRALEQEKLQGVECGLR

[13] = molecular target: JAK2(h) (Homo sapiens, UniProt O60674)
Chain of JAK2(h) (O60674 whole entry): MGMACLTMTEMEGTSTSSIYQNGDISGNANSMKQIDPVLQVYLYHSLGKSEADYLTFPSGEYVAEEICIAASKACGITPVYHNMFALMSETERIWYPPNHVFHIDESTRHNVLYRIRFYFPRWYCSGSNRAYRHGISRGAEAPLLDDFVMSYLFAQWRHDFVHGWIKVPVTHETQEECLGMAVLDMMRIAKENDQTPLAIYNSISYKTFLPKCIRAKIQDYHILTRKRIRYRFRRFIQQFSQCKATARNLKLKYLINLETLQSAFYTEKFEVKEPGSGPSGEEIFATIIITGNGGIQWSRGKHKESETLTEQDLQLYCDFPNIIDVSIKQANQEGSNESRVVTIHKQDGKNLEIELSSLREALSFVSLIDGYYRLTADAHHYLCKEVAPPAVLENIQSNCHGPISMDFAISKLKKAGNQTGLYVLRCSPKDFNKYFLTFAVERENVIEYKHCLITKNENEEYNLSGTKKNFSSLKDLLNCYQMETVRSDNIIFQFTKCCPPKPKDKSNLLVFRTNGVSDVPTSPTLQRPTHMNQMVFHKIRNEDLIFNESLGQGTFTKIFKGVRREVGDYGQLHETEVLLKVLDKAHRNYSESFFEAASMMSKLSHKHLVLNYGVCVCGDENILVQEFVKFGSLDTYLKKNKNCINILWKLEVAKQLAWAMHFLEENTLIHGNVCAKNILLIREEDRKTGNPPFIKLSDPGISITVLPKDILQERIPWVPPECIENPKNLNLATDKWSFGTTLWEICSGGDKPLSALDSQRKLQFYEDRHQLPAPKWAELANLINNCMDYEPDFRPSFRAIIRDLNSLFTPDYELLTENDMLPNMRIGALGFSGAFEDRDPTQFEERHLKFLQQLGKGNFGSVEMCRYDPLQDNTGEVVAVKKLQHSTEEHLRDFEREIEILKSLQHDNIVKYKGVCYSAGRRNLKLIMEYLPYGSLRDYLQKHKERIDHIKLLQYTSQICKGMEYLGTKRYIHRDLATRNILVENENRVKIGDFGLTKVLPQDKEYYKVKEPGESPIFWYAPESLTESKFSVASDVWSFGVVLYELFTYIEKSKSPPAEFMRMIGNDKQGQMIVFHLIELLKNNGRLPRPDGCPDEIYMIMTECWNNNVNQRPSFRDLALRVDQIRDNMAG

[14] = molecular target: LOK(h) (Homo sapiens, UniProt O94804)
Chain of LOK(h) (O94804 whole entry): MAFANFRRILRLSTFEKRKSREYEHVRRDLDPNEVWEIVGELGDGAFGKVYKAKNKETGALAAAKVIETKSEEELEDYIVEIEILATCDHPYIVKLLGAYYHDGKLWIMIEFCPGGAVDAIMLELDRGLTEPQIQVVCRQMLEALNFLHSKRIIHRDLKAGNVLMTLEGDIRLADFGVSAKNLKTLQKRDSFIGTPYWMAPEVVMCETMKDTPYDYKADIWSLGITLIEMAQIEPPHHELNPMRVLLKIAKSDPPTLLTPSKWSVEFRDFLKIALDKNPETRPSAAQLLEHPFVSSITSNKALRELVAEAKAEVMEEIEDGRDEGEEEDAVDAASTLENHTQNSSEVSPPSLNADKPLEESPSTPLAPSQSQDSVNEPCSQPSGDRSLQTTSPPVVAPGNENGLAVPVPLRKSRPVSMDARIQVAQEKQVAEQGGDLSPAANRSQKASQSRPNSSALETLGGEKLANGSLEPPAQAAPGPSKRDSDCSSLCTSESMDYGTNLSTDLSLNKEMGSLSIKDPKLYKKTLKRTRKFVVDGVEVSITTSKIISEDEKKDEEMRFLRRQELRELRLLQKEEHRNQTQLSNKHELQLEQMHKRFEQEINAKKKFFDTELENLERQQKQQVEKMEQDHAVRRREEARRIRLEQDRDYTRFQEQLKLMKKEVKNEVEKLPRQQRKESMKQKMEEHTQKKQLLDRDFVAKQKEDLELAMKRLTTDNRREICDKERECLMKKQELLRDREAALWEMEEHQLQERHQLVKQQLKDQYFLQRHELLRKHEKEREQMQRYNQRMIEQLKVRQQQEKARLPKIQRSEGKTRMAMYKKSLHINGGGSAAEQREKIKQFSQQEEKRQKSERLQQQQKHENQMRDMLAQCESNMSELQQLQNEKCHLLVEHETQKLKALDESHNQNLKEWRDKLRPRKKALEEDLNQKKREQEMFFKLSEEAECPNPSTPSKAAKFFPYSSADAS

[15] = molecular target: Fms(h) (Homo sapiens, UniProt P07333)
[16] = molecular target: Abl(Y253F)(h) (Homo sapiens, UniProt P00519, Y253F)
[17] = molecular target: EphA2(h) (Homo sapiens, UniProt P29317)

Chain of CDK9/cyclin T1(h) (P50750 whole entry): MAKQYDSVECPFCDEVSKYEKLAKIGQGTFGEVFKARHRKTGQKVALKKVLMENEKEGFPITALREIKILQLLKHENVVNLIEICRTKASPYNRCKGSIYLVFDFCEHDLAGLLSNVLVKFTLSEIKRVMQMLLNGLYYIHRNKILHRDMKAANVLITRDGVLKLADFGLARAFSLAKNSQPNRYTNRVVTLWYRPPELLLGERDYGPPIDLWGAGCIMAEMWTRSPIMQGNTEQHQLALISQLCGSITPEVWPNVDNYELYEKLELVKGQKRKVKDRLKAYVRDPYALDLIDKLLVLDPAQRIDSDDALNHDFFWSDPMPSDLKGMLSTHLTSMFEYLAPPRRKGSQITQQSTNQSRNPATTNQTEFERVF
Chain of CDK9/cyclin T1(h) (O60563 whole entry partner): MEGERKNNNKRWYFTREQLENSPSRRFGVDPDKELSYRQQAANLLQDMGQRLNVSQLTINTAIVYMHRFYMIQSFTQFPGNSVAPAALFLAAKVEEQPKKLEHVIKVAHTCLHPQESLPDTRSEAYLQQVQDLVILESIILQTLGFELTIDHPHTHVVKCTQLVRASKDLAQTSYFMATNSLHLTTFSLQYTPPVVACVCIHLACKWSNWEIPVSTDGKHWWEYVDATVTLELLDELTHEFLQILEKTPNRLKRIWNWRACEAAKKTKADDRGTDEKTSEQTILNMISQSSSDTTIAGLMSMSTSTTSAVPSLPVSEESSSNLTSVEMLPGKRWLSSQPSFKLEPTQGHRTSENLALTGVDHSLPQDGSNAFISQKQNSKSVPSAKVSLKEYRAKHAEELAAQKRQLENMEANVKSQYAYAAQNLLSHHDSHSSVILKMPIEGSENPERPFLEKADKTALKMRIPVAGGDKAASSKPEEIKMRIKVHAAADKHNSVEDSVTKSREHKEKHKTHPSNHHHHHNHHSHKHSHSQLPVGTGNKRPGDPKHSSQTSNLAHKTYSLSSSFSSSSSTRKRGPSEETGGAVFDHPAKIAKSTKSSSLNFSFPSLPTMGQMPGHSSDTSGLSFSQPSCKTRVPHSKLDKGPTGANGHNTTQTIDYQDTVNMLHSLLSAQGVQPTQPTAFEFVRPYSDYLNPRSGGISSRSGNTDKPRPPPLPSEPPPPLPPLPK

| Sequence | % activity [1] [%] | % activity [2] [%] | % activity [3] [%] | % activity [4] [%] | % activity [5] [%] | % activity [6] [%] | % activity [7] [%] | % activity [8] [%] | % activity [9] [%] | % activity [10] [%] | % activity [11] [%] | % activity [12] [%] | % activity [13] [%] | % activity [14] [%] | % activity [15] [%] | % activity [16] [%] | % activity [17] [%] |
| --- | --- | --- | --- | --- | --- | --- | --- | --- | --- | --- | --- | --- | --- | --- | --- | --- | --- |
| HRRIKAWLKKIKALARQLGVAA [MMI-0500] | 239 | 6 | 3 | 9 | 150 | 3 | 12 | 12 | 36 | 33 | 80 | 1 | 49 | 7 | 14 | 29 | – |
| YARAAARQARAKALNRQLGVA [MMI-0200] | 143 | – | 75 | 39 | 86 | 100 | 66 | 73 | – | 77 | 100 | 67 | 131 | 67 | 92 | – | 95 |
| KAFAKLAARLYRKALARQLGVAA [MMI-0400] | 265 | 235 | 19 | 7 | 99 | 75 | 54 | 18 | 87 | 29 | 97 | 13 | – | 18 | 37 | 78 | 17 |
| FAKLAARLYRKALARQLGVAA [MMI-0300] | 255 | 91 | 28 | 3 | 95 | 82 | 59 | 14 | 95 | 56 | – | 28 | 133 | 37 | 45 | 86 | 31 |
